Experimental data published in patent publication US20140193400A1 (ESBATECH AN ALCON BIOMEDICAL RESEARCH UNIT, published 2014).
Residue numbers refer to the chain shown, from its start. “And” between values parts separate entries of the source, which are not always exact repeats. Equal entries are not always repeated. Where two headings read alike, the source gives them in different places.

B1: EP15_max (scFv)
scFv: EIVMTQSPSTLSASVGDRVIITCQASENIYTSLAWYQQKPGKAPKLLIYSASTLASGVPSRFSGSGSGTEFTLTISSLQPDDFATYYCQQGFATSNVENPFGQGTKLTVLGGGGGSGGGGSGGGGSGGGGSEVQLVESGGGSVQPGGSLRLSCTVSGFSLSRYGVSWVRQAPGKGLEWVGAIGETGRAYYANWAKSRSTISRDTSKNTVYLQMNSLRAEDTATYYCARGEEFNNGWGAFNIWGQGTTVTVSS
notes: scFv NH2-VL-(GGGGS)4-VH-COOH; also called 1074
B2: EP34_max (scFv)
scFv: EIVMTQSPSTLSASLGDRVIITCQSSQSVYGNIWMAWYQQKSGKAPKLLIYQASKLASGVPSRFSGSGSGAEFSLTISSLQPDDFATYYCQGNFNTGDRYAFGQGTKLTVLGGGGGSGGGGSGGGGSGGGGSEVQLVESGGGLVQPGGSLRLSCTASGFTISRSYWICWVRQAPGKGLEWVACIYGDNDITPLYANWAKGRFPVSTDTSKNTVYLQMNSLRAEDTAVYYCARLGYADYAYDLWGQGTLVTVSS
notes: scFv NH2-VL-(GGGGS)4-VH-COOH; also called Epi34max; 791
B3: EP43_max (scFv)
scFv: EIVMTQSPSTLSASVGDRVIIKCQASQSISDWLAWYQQKPGKAPKLLIYGASRLASGFPSRFSGSGSGAEFTLTISGLEPADFATYYCQQGWSDSYVDNLFGQGTKLTVLGGGGGSGGGGSGGGGSGGGGSEVQLVESGGGLVQPGGSLRLSCTVSGFSLSSGAMSWVRQAPGKGLEWVGVIISSGATYYASWAKGRFTISKDTSKNTVYLQMNSLRAEDTAVYYCARGGPDDSNSMGTFDPWGQGTLVTVSS
notes: scFv NH2-VL-(GGGGS)4-VH-COOH; also called 676
B4: EP43_minmax (scFv)
scFv: B3 scFv with K22T, F58V, G77S, E79Q, A81D
notes: Min graft VL with max graft VH; also called 958
B5: EP43_maxmin (scFv)
scFv: B3 scFv with T154A, V155A, G180S, K202R, T204N, V209L, R228K
notes: also called 959
B6: EP43_maxDHP (scFv)
scFv: B3 scFv with L142S, V223T, L248S
B7: EP43_min (scFv)
scFv: EIVMTQSPSTLSASVGDRVIITCQASQSISDWLAWYQQKPGKAPKLLIYGASRLASGVPSRFSGSGSGAEFTLTISSLQPDDFATYYCQQGWSDSYVDNLFGQGTKLTVLGGGGGSGGGGSGGGGSGGGGSEVQLVESGGGLVQPGGSLRLSCAASGFSLSSGAMSWVRQAPGKGLEWVSVIISSGATYYASWAKGRFTISRDNSKNTLYLQMNSLRAEDTAVYYCAKGGPDDSNSMGTFDPWGQGTLVTVSS
notes: scFv NH2-VL-(GGGGS)4-VH-COOH; also called 705
B8: EP1_max (scFv)
scFv: EIVMTQSPSTLSASVGDRVIITCQSTESVYKNNYLAWYQQKPGKAPKLLIYDASTLASGVPSRFSGSGSGTEFTLTISSLQPDDFATYYCAGYYRSGSGTANGSFGQGTKLTVLGGGGGSGGGGSGGGGSGGGGSEVQLVESGGGSVQPGGSLRLSCTVSGIDLSNDAISWVRQAPGKGLEWVAYISDWSIRYYANWAQGRFTISKDTSKNTVYLQMNSLRAEDTATYYCARGAPGAGDNGIWGQGTTVTVSS
notes: scFv NH2-VL-(GGGGS)4-VH-COOH; also called 1072
B9: EP42_max (scFv)
scFv: B8 scFv with S98F, S165R, A184S, S190G, R192K, N196S, A198V, Q199K
notes: scFv NH2-VL-(GGGGS)4-VH-COOH; also called 1077
B10: EP42_min (scFv)
scFv: EIVMTQSPSTLSASVGDRVIITCQSTESVYKNNYLAWYQQKPGKAPKLLIYDASTLASGVPSRFSGSGSGAEFTLTISSLQPDDFATYYCAGYYRSGFGTANGSFGQGTKLTVLGGGGGSGGGGSGGGGSGGGGSEVQLVESGGGLVQPGGSLRLSCAASGFTFRNDAISWVRQAPGKGLEWVSYISDWGIKYYASWVKGRFTISRDNSKNTLYLQMNSLRAEDTAVYYCAKGAPGAGDNGIWGQGTLVTVSS
notes: scFv NH2-VL-(GGGGS)4-VH-COOH; also called 1076
B11: EP6_min (scFv)
scFv: EIVMTQSPSTLSASVGDRVIITCQASESIYSGLAWYQQKPGKAPKLLIYQASTLASGVPSRFSGSGSGAEFTLTISSLQPDDFATYYCQQGFGTSNVENPFGQGTKLTVLGGGGGSGGGGSGGGGSGGGGSEVQLVESGGGLVQPGGSLRLSCAASGFSLSRYGVSWVRQAPGKGLEWVSTIGEAGRAYYANWARSRFTISRDNSKNTLYLQMNSLRAEDTAVYYCAKGEVFNNGWGAFNIWGQGTLVTVSS
notes: scFv NH2-VL-(GGGGS)4-VH-COOH; also called 673
B12: EP6_max (scFv)
scFv: B11 scFv with A69T, E70D, T74A, A154T, A155V, S180G, F198S, N204T, L209V, K228R
notes: scFv NH2-VL-(GGGGS)4-VH-COOH; also called 674
B13: EP15_min (scFv)
scFv: EIVMTQSPSTLSASVGDRVIITCQASENIYTSLAWYQQKPGKAPKLLIYSASTLASGVPSRFSGSGSGAEFTLTISSLQPDDFATYYCQQGFATSNVENPFGQGTKLTVLGGGGGSGGGGSGGGGSGGGGSEVQLVESGGGLVQPGGSLRLSCAASGFTFSRYGVSWVRQAPGKGLEWVSAIGETGRAYYANWAKSRFTISRDNSKNTLYLQMNSLRAEDTAVYYCAKGEEFNNGWGAFNIWGQGTLVTVSS
notes: scFv NH2-VL-(GGGGS)4-VH-COOH; also called 1073
B14: ESBA105 (scFv)
chain: MADIVMTQSPSSLSASVGDRVTLTCTASQSVSNDVVWYQQRPGKAPKLLIYSAFNRYTGVPSRFSGRGYGTDFTLTISSLQPEDVAVYYCQQDYNSPRTFGQGTKLEVKRGGGGSGGGGSGGGGSSGGGSQVQLVQSGAEVKKPGASVKVSCTASGYTFTHYGMNWVRQAPGKGLEWMGWINTYTGEPTYADKFKDRFTFSLETSASTVYMELTSLTSDDTAVYYCARERGDAMDYWGQGTLVTVSS
B15: EP35_max (scFv)
scFv: EIVMTQSPSTLSASVGDRVIITCQASQSISNLLAWYQQKPGKAPKLLIVAASKLASGVPSRFSGSGSGTEFTLTISSLQPDDFATYYCQQGWSHTNVDNTFGQGTKLTVLGGGGGSGGGGSGGGGSGGGGSEVQLVESGGGSVQPGGSLRLSCTASGFSFSVGYWICWVRQAPGKGLEWVACIDAGTSGGTYYATWAKGRFTISKDTSKNTVYLQMNSLRAEDTATYYCARGVSSNGYYFKLWGQGTTVTVSS
notes: scFv NH2-VL-(GGGGS)4-VH-COOH; also called 1089
B16: EP19_max (scFv)
scFv: EIVMTQSPSTLSASVGDRVIITCQASDNIYRGLAWYQQKPGKAPKLLIYDASTLQSGVPSRFSGSGSGTQFTLTISSLQPDDFATYYCLGVYGYSSDDGAAFGQGTKLTVLGGGGGSGGGGSGGGGSGGGGSEVQLVESGGGLVQPGGSLRLSCTVSGFSLNSNEISWVRQAPGKGLEWVGYIGNGGMTHYASWAKGRFTISRDTSKNTVYLQMNSLRAEDTAVYYCASSVEYTDLYYLNIWGQGTLVTVSS
notes: also called 1007; EP19maxmod

Assays:
[1] = target: T1, recombinant human TNFalpha (human, UniProt P01375 77-233); test: cell-based or functional assay
T1 sequence (P01375 77-233 limits assumed): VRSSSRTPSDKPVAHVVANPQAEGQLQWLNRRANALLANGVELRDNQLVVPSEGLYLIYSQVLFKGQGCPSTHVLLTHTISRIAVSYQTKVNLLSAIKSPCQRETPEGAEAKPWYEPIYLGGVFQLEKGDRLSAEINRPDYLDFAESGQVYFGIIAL

[2] = target: T1, recombinant human TNFalpha; test: cell-based or functional assay; remark: listed apart in the source
[3] = target: T2, Human TNFa N-his trimers (His-tagged TNF, produced at ESBATech) (human, UniProt P01375 77-233); test: SPR (BIAcore T100), His-tagged human TNF captured on NTA chip, scFv as analyte
T2 construct: Captured as trimers on a Ni-NTA sensor chip by the N-terminal His tags in the Biacore assay of the general methods; also called human TNFα; human TNF alpha; not shown: N-terminal His tag
T2 sequence (P01375 77-233 limits assumed): as above
Method: (§1) For binding affinity measurements at pH5 and pH 7.4 (data not shown), surface Plasmon resonance measurements with BIAcore™-T 100 were employed using a NTA sensor chip and His-tagged TNF (produced at ESBATech). The surface of the NTA sensor chip consists of a carboxymethylated dextran matrix pre-immobilized with nitrilotriacetic acid (NTA) for capture of histidine tagged molecules via Ni2+NTA chelation. Human TNFa N-his trimers (5 nM) are captured by the nickel via their N-terminal his-tags and ESBA105 (analyte) is injected at several concentrations ranging from 30 nM to 0.014 nM in 3 fold serial dilution steps. At the regeneration step, the complex formed by nickel, ligand and analyte is washed away. This allows the use of the same regeneration conditions for different samples. The response signal is generated by surface Plasmon resonance (SPR) technology and measured in resonance units (RU). All the measurements are performed at 25° C. Sensorgrams were generated for each anti-TNF scFv sample after in-line reference cell correction followed by buffer sample subtraction. The apparent dissociation rate constant (kd), the apparent association rate constant (kₐ) and the apparent dissociation equilibrium constant (KD) were calculated using one-to-one Langmuir binding model with BIAcore T100 evaluation Software version 1.1.

[4] = target: T1, recombinant human TNFalpha; test: cell-based or functional assay; remark: listed apart in the source
[5] = target: T1, recombinant human TNFalpha; test: cell-based or functional assay; remark: listed apart in the source
[6] = target: T1, recombinant human TNFalpha; test: cell-based or functional assay; remark: listed apart in the source
[7] = target: T2, Human TNFa N-his trimers (His-tagged …); test: SPR (BIAcore), His-tagged human TNF captured on NTA chip, scFv as analyte; units taken from paragraph 184
Method: as §1

Row | Molecule | Kd [3] | koff [3] | kon [3] | L929* [EC50-E105/EC50-X], potency relative to ESBA105 [4] | further results
1 | Adalimumab (antibody) |  |  |  |  | IC50, block of cytotoxic activity (murine L929 cells, 1000 pg/ml TNF) [1]: 8.46 ng/mL; IC50, block of cytotoxic activity (human Kym-1 cells, 10 pg/ml TNF) [2]: 66.2 ng/mL; IC50, block of cytotoxic activity (murine L929 cells, 1000 pg/ml TNF) [2]: 8.45 ng/mL
2 | B1 | 1.48 nM | 0.00226 s⁻¹ | 1.53e+06 M⁻¹ s⁻¹ | 0.39 ratio EC50 ESBA105/EC50 X (mass units, ng/ml) | 
3 | B2 | 0.0286 nM | 1.68e-05 s⁻¹ | 586000 M⁻¹ s⁻¹ | 10.5 ratio EC50 ESBA105/EC50 X (mass units, ng/ml) | IC50, block of cytotoxic activity (human Kym-1 cells, 10 pg/ml TNF) [5]: 0.69 ng/mL and 0.63 ng/mL; IC50, block of cytotoxic activity (murine L929 cells, 1000 pg/ml TNF) [5]: 1.03 ng/mL and 1.04 ng/mL
4 | B3 | 0.251 nM | 4.48e-05 s⁻¹ | 178000 M⁻¹ s⁻¹ | 6.4 ratio EC50 ESBA105/EC50 X (mass units, ng/ml) | EC50, L929 potency assay [5]: 1 ng/mL; L929* [EC50-E105/EC50-X], potency relative to ESBA105 [6]: 6.4 ratio EC50 ESBA105/EC50 X (mass units, ng/ml); Kd [7]: 0.249 nM; koff [7]: 5.68e-05 s⁻¹; kon [7]: 228000 M⁻¹ s⁻¹
5 | B4 |  |  |  |  | L929* [EC50-E105/EC50-X], potency relative to ESBA105 [6]: 1.6 ratio EC50 ESBA105/EC50 X (mass units, ng/ml); Kd [7]: 0.868 nM; koff [7]: 0.000198 s⁻¹; kon [7]: 228000 M⁻¹ s⁻¹
6 | B5 |  |  |  |  | Kd [7]: 36.6 nM; koff [7]: 0.00533 s⁻¹; kon [7]: 146000 M⁻¹ s⁻¹
7 | B6 |  |  |  |  | L929* [EC50-E105/EC50-X], potency relative to ESBA105 [6]: 6.7 ratio EC50 ESBA105/EC50 X (mass units, ng/ml); Kd [7]: 0.116 nM; koff [7]: 2.73e-05 s⁻¹; kon [7]: 235000 M⁻¹ s⁻¹
8 | B7 | 5540 nM | 0.0298 s⁻¹ | 5380 M⁻¹ s⁻¹ |  | 
9 | B8 | 56.9 nM | 0.00063 s⁻¹ | 11100 M⁻¹ s⁻¹ |  | 
10 | B9 | 3.46 nM | 0.000419 s⁻¹ | 121000 M⁻¹ s⁻¹ |  | 
11 | B10 | 58.7 nM | 0.00835 s⁻¹ | 142000 M⁻¹ s⁻¹ |  | 
12 | B11 | 106 nM | 0.00494 s⁻¹ | 46700 M⁻¹ s⁻¹ |  | 
13 | B12 | 0.512 nM | 0.000145 s⁻¹ | 284000 M⁻¹ s⁻¹ | 1.1 ratio EC50 ESBA105/EC50 X (mass units, ng/ml) | 
14 | B13 | 262 nM | 0.041 s⁻¹ | 157000 M⁻¹ s⁻¹ |  | 
15 | B14 |  |  |  |  | EC50, L929 potency assay [5]: 6.5 ng/mL
16 | B15 | 0.194 nM | 0.00015 s⁻¹ | 772000 M⁻¹ s⁻¹ | 5.2 ratio EC50 ESBA105/EC50 X (mass units, ng/ml) | 
17 | B16 | 2.91 nM | 6.54e-05 s⁻¹ | 22500 M⁻¹ s⁻¹ | 0.6 ratio EC50 ESBA105/EC50 X (mass units, ng/ml) | 
